The series is described as follows: label from the status in PepcDB records.
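Further: failed if final PepcDB status was selected cloned or expressed and not failed if soluble or beyond.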

“MIYSKVENFINENKQNAIFTEGASHENIGRIEENLQCDLPNSYKWFLEKYGAGGLFGVLVLGYNFDHASVVNRTNEYKEHYGLTDGLVVIEDVDYFAYCLDTNKMKDGECPVVEWDRVIGYQDTVADSFIEFFYNKIQEAKDDWDEDEDWDD”: the protein production result is listed as “not failed”.

As to “MKAALLDQVARVGKALANGRRLQILDLLAQGERAVEAIATATGMNLTTASANLQALKSGGLVEARREGTRQYYRIAGEDVARLFALVQVVADEHLEHHHHHH”, the protein production entry is given as “not failed”.

With “MKAIMRRLIMTNFFNTPLFGLTLSVLAYTLGLSLYRRFPNPLTTPLLVSTALIIVILHYTGICYRDYYVGGSYLNSLIIPSTVALAVPFYKNLHLMRHHCKSILIGSTVACILNTTYTALIAKLFGMDYFLAISLFPKSVTTAMAVGISEKMQGITTVTLVVVVITGILTSVLGPVFLKMIGIKDPVAIGLSLGGTGHAVGTGTAFRYGQVAGAMGGLSIAVTGILYVFISPIVASLILR”, the protein production result is on record as “failed”. The same measure for “MKAIRRFTVRPVLPDALHPLSDLARNLRWSWHAETRELFQSVDPERWAASDGDPVRLLGSVPHARLAELAEDRRFLRRLGAAADDLTDYVTGDRWYQSQAEAPSRAAELPAAIAYFSPEFGVTAALPQYSGGLGILAGDHLKAASDLGVPLIGVGLLYRHGYFRQSLSRDGWQQEHYPVLDPHELPVVPLREDDGALAQVSLALPGGRRLQARIWLAQVGRVPLLMLDSDVEENDHGERGVTDRLYGGGSEHRLLQEMLLGIGGVRAVRTYCRLTGHAEPEVFHTNEGHAGFLGLERIAELCDTGLDFDAGLESVRAGTVFTTHTPVPAGIDRFDRELVARHFGPDAELPRIDVERILGLGMETYPGGEPNLFNMAVMGLRLGQRANGVSLLHGQVSREMFSGLWPGFDPDEVPITSVTNGVHAPTWVAPEVFRLGARQIGAQRTEDAMTVGGSERWDAVAEIPDQDIWDLRRVLREQLVTEVRERLRASWRQRGAGTAELGWIDGVLDPDVLTIGFARRVPSYKRLTLMLRDRDRLMDLLLHPERPVQIVVAGKAHPADDGGKRLVQELVRFADDPRVRHRIVFLPDYGMAMAQKLYPGCDIWLNNPLRPLEACGTSGMKAALNGCLNLSVLDGWWDEWFQPDFGWAIPTADGTATDEDRRDDLEATALYDLLEGRVAPRFYERGQAGLPDRWIEMVRQTLTHLGPKVLAGRMVREYVERLYTPAALAHRALTPEPARELATWKSRVRAAWPRVTVDHVETSVATTTAELGTTLSLRVRVGLGDLDPDDVEVQAVAGRVDGQDRITDATAVPLKPVGGPDLEGRRVYEGPLSLDRTGPFGYTVRILPTHRLLATSAELGLVAVPSEDVGEGAGVLLR”: “failed”.

Regarding “MKALNDLNIFVETARQGSFSKAANSMDMTPAAISASIKRLEGQIGFPLFVRSTRSLRLTSEGELFLDKTTQALATLQEGLDQISSARGELSGQLHITAPSDFGRNMLLDWVDEFIDLYPNVSIKLELSDSLTDMYTKPVDIAIRYGEPADSNLVVLALCGSNERILCASPEYVATHPELTSPADLTQHNCLCYMVADSVYNKWTLTRDGEKEQVVVSGNLMSNDSDLPHRLAIKGKGIANKSLMDISRDLIEGRLVRVLPEWDSGPVPLYMVCADRRLLTPTIRTFRDFIQQKCCQQRANVLATFCH”, the protein production entry is on record as “failed”. The entry for “MKALNKIRYAFLVCTLMVLVTLAGCNSADRSAEPPQSSHQGSEQEGAKKTPLNVEVFNLGERSMFAVSSVLVTGTADAILIDTQFSAADARQLVDKIKASGKRLKAIYISHGDPDYYFGLDSVHAAFPEAKVFATPQTIAHIQATKDAKLKLWAPQLGQDAPKQILIPEPMQGDQLVLEGQELRIIGMDGPTPDRTFVWIPSSRTVAGGISVMGAQHVWMADTQTPQSHMEWLAVLDRIKSMDPKVVVPGHFLPGASLDVRSVTFTADYIRAFDEETVKAKDSAALIAAMKQRYPGLGGEGSLELSAKVAKGEMEWK” is “failed”.

Regarding “MKASFKGKFDVDKSGSVASLTFNAGNAKLRATMTDASFVAGPSFNGLSLAVEKPGFFIIDYNVPKKDVRFQFMNTIRIAEKPLNLTYIHMRGDNRTIVDGSFVIDPANKLSANYMVGTKNCKLKYTYVHGGIATFEPCYDVAKNMWDFAISHKLYGGDNLKATYQTSSKMLGLEWSNNSKSTGSFKVCASMNLAEELKPPKLTAETTWNLEL”, the protein production result is on record as “not failed”. Consider “MKASSLAFSLLSAAFYLLWTPSTGLKTLNLGSCVIATNLQEIRNGFSEIRGSVQAKDGNIDIRILRRTESLQDTKPANRCCLLRHLLRLYLDRVFKNYQTPDHYTLRKISSLANSFLTIKKDLRLCHAHMTCHCGEEAMKKYSQILSHFEKLEPQAAVVKALGELDILLQWMEETE”, for which the protein production entry is “failed”. The same measure for “MKATFQVPSITCNHCVDKIEKFVGEIEGVSFIDVSVEKKSVVVEFDAPATQDLIKEALLDAGQEVV”: “failed”; for “MKATLAAPSSLTSLPYRTNSSFGSKSSLLFRSPSSSSSVSMTTTRGNVAVAAAATSTEALRKGIAEFYNETSGLWEEIWGDHMHHGFYDPDSSVQLSDSGHKEAQIRMIEESLRFAGVTDEEEEKKIKKVVDVGCGIGGSSRYLASKFGAECIGITLSPVQAKRANDLAAAQSLAHKASFQVADALDQPFEDGKFDLVWSMESGEHMPDKAKFVKELVRVAAPGGRIIIVTWCHRNLSAGEEALQPWEQNILDKICKTFYLPAWCSTDDYVNLLQSHSLQDIKCADWSENVAPFWPAVIRTALTWKGLVSLLRSGMKSIKGALTMPLMIEGYKKGVIKFGIITCQKPL”: “failed”. The same measure for “MKAVFAKLGSDFFSTIVFVVLYFSTGNVALATIVAVLGAVGQFIYAKIKGQRLDVMAYASVALVVVLGGATLLTNDPRFVLIKPSVGHIAVGLLMLRRDWMLRYVPPIVAETIPDYVRIAGYAWAALMLLLGTGVIAAAMTGDIKVWTFYVMVIAPAFKVAAFAGQYLVFRIAIRSRRRAAVATAEPAASTPVTAEP”: “failed”. Turning to “MKCIPYSVLLKDLEMRNLRELEDLIIEAVYTDIIQGKLDQRNQLLEVDFCIGRDIRKKDINNIVKTLHEWCDGCEAVLLGIEQQVLRANQYKENHNRTQQQVEAEVTNIKKTLKATASSSAQEMEQQLAERECPPHAEQRQPTKKMSKVKGLVSSRH”, the protein production result is “not failed”. The entry for “MKDETNIKTIALAIVLIAGYNVYTSQQDVKMFSLTLANIEALAMDETTQCDNANGYRRILEGDERIYDCCYLEKVGKLEHHHHHH” is “failed”; for “MKDGMKQQKLVEKMTIEEKAAILSGKTVWQTREIDRLSIPSIFLSDGPHGIRKQAGTGDHLGLNASLNATCFPTAATIANSWNQNLGEEIGQALGEEAASMDVNILLGPGLNIKRSPLCGRNFEYFSEDPYLSGKMAASYIRGIQSKGVYACPKHLAVNSQELRRMAMDAVVDERTLREIYLTGFEIAVKEGHAKAIMSSYNQINGIYANEDKHLLTDILRKDWGFDGIVVTDWGGSNDHVKGVAAGSNLEMPSCGYDSAREVIAAVQNGKLKEADLDERVGELVDAVMELTSGKKLSDKNFDRNEHHQLARKAAAESMILLKNEKQILPLDTKKSIAVIGDFAFSPRYQGAGSSMVNPTKVEDMSSILQQYDLNILGMTRGYHRNGDVDENDRKFALNLSMNADIVIFCFGLDEISESEGLDRTHMRIPQDQIDLLQDISKVNENVIGILSAGSAIEMPWHTCCKAILHGYLNGQAGASATLDILTGKVNPSGRLAETYPISYEQTPAYRYYPSNEKTSEYRESVYVGYRYYDTSKVRVQYPFGFGLSYTEFTYSDLIIEEDGIKVSVTNTGDRDGAEVVQMYVGLPNAIVFRPEKELKGFAKVYLKAGESRQIRIPFDDKTFRYWNIKTGQWEIETGTYQIMVGASVADIRLTGMTERTGNSKGYPYNPAKMPYYYTGIVQKISDEEFRELLGHEIPNRRWSGNLEINDAICQMYYAKSRLARLIYRCLTKMKKKSEAQGKPDLNILFIYNMPFRGIAKMTGGAVSMEMVYGIVDAVNGHFMLGVKKIIGGYFRNRRNNKKYEKLLKGAGGKCR” it is “failed”. The same measure for “MKDIIITSQKIKRERNIYLICFLLSFAINIIAILVYTRPWIEIFTQLGYVLVISFFIYFILWIPRILVIGLRHLLRKKK”: “failed”; for “MKDNYDAPESMLTGRVMYNGEALQLRGNEAVQLQLYQHGYAKHDPINVYVNQDGMYSANLFDGEYQMITKSGNGPWTSEGRDTINVTVAGNTVQDVEVTPYYLVRDAQMTLEGNKVNASFKVEKVAGGGIDRVFFMLSTTQFVNDAEHNVDRYDETDNLDAYDETGKLYTFATRDYTDNSMFQTALKRGTLFGRICIWPKGSDQGIYSKVIRLK”: “not failed”.

Turning to “MKDSAQNFSTEKTGLKPVIRKIYDCLFDSYGPQGWWPLTELREAEGTNPTKTGSVQGYHPADYTYPQTRNQRFEIICGALLTQNTSWIQVEKALLNLKDLLSLKQINSFSPETIISLDTEILKEAIRPAGYYNQKAMRLKNLACWFLELENRIPARKELLSLKGVGPETADSILLYAFKQPSFVVDAYTKRIVTNLGLADEKAGYNEIKALFEENLPEDTTVYQEYHALLVEHAKRYYQKKSIRTNDIILKHVF”, the protein production entry is “failed”.

With “MKEALKKYNLPIVFVITYVFGCVFAMLCQNTAGEVIMNLLIFALIVLVIYAIIFNYVMYSKMSFGQNFLYILFSSIIYIFGLIFVMILSAVIGDSINNSNDDFGFLLMMFGTSFTMGIFFAYLIPIVPSAIVKLLCGHEKK”, the protein production entry is “failed”.

For the sequence “MKEFLNSLSYGISSHEVNNEFKQIFRELLTNHIIKEHKNKYYLNNGFAFGVLDISSKGTGFLQCFDESFKKDLLIENKNLKGANYKDIVAVKLLPLKKKRPSAKVILVLKRANETSLMITKRYGEAVLGMNIKTGLSTALKASQKSLKALPLGTILKIENENNNIIEVLGHIDDESVDEKISLALFNKNNEFSDACIKEALANGDSVDASMYENRMDLRALPFCTIDPIHAKDFDDAIYFDTQKREIYVAIADVSEYVYAYSAIDKEARNRGFSIYFPHIAIPMLPRPLSENICSLKPHLDRLAYCFKITLNHENKVIKEELFEGIINSKRRFNYDEVDEILIQKPDLKELSWLYELFEITKNLRKMRLKNAFEFRTEELRMNLDENLSLKSTVFEKDTPSHNLIEDCMLLANKAAAKLIDIGVFRNHLSADVRKIDKLLNELRELGIDVNFKPNLPELIRDIQALADELNLRAEVDKLIIKAQKKAEYSSVNAGHFGLGFDKYSHFTSPIRRYSDLILHRLLKAKQKNDEKLFNYLLLNIESTCENLSTLEREADKVAFDFMDRKFARWAAKNIGKKFKALVVQNDGVCIAKLDDEIKGADIILYDTRVNLLENVEVQIMEADIVMAKIYAKITQRLIKEENV”, the protein production result is reported as “failed”.

Regarding “MKEIRIILMGTGNVGLNVLRIIDASNRRRSAFSIKVVGVSDSRSYASGRNLDISSIISNKEKTGRISDRAFSGPEDLMGEAADLLVDCTPASRDGVREYSLYRMAFESGMNVVTANKSGLANKWHDIMDSANQNSKYIRYEATVAGGVPLFSVLDYSILPSKVKRFRGIVSSTINYVIRNMANGRSLRDVVDDAIKKGIAESNPQDDLNGLDAARKSVILVNHIFGTEYTLNDVEYSGVDERSYNANDRLVTEVYVDDRRPVAVSRIISLNKDDFLMSIGMDGLGYQIETDSNGTVNVSDIYDGPYETAGAVVNDILLLSKVQK”, the protein production result is “failed”. Consider “MKEIRYLVRQRLPFRGHDESDESANRGNFLELVKYTVGQNEVISKVVLENAPKNNQMVFDEMSEPLIPETRDPVPSSFLLLDLILDYPVVWQQTVQSNVSDKEQMAVVFRFVDKHGTVKERFIGLIHVKETSSASLKCAIDSLFAKRGLSMKQLRGQGYDGANNMKGEFNWLRSLILRENSSAYYIHCFAHQLQLVVVAVAKKQFEVGDFFDMISALLNVVGASCKGKDRIREEYLKEIEEGINQGEIKTGKGLNQELSLQRPGNTRWGTHYTTLHRLAHLFSVIIKLLEFVEEEGTDSTKRRQANGLLKYFNTFDFAFYLQLMLLLLGLTNSLSVALQKKDQDILNPMSLVKSTKQQLCKLRDDGWDSLVNEVFSFCKKHDIELVIMDGEFVNPRNPRKRSNMTNFHHYQVECFYTILDMQIQEFNDRFDEVNTELLSCVASLSPIDSFHEFDQLKVLRLSEFYPQDFTHVDRRSLEHQLGLYIDNIREDERFAN”, for which the protein production result is given as “failed”.

The values above are taken from a protein production outcome set (Wang et al. 2014).
